In PMC8254758 (Structure (London, England : 1993), 2021):
Numbering of substitutions follows the chain as printed. Numbers in names are those of the source. Each block holds one molecule with its values, some of them ahead of it.

Legend:
[1] = target: full-length SPARC (SPARC_C1) and the SPARC FS-EC domains (SPARC_C2); experiment: fluorescence polarisation
[2] = target: rat NLGN2(+A) extracellular domain (Val43-His612, with splice insert SSA) (rat) (UniProt Q62888); experiment: SPR
[3] = target: T1, rat NLGN2(+A) extracellular domain (Val43-His612, with splice insert SSA) (rat, UniProt Q62888-1 43-612); experiment: SPR
[4] = target: T1, rat NLGN2(+A) extracellular domain …; experiment: fluorescence polarisation

T1 sequence (Q62888 43-612): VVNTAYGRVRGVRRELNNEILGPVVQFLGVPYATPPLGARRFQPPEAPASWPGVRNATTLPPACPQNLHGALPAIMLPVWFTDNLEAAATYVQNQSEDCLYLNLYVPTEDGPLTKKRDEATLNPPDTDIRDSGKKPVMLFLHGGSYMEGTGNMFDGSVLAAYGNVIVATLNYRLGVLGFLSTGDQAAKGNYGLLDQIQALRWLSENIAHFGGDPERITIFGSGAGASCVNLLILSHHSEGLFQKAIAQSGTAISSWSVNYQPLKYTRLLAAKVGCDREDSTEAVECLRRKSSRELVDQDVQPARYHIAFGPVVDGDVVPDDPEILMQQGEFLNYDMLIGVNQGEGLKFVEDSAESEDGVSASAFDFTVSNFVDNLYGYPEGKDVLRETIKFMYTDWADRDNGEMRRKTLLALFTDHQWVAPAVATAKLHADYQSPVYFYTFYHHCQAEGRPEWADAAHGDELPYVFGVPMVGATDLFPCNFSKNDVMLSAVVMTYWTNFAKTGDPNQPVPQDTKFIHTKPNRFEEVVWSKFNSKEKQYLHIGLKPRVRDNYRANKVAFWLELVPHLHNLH
Chain of rat NLGN2(+A) extracellular domain (Val43-His612, with splice insert SSA) (rat) (Q62888 43-612): as above

Molecule: bovine neurexin 1α L1L6 (M1-S1339, without splice inserts) (domain or fragment)
Kd [2]: 3.8 nM

B1: hevin_C4 (L302-F664) (domain or fragment, human, UniProt Q14515 302-664, looked up)
chain: LEAISNHKETEEKTVSEALLMEPTDDGNTTPRNHGVDDDGDDDGDDGGTDGPRHSASDDYFIPSQAFLEAERAQSIAYHLKIEEQREKVHENENIGTTEPGEHQEAKKAENSSNEEETSSEGNMRVHAVDSCMSFQCKRGHICKADQQGKPHCVCQDPVTCPPTKPLDQVCGTDNQTYASSCHLFATKCRLEGTKKGHQLQLDYFGACKSIPTCTDFEVIQFPLRMRDWLKNILMQLYEANSEHAGYLNEKQRNKVKKIYLDEKRLLAGDHPIDLLLRDFKKNYHMYVYPVHWQFSELDQHPMDRVLTHSELAPLRASLVPMEHCITRFFEECDPNKDKHITLKEWGHCFGIKEEDIDENLLF
binding result [3]: binds

B2: human MDGA1 Ig1-Ig2 (MDGA1_C8, Y22-T237) (domain or fragment, UniProt Q8NFP4-1 22-237, looked up)
chain: YAPAQAQIVHAGQACVVKEDNISERVYTIREGDTLMLQCLVTGHPRPQVRWTKTAGSASDKFQETSVFNETLRIERIARTQGGRYYCKAENGVGVPAIKSIRVDVQYLDEPMLTVHQTVSDVRGNFYQEKTVFLRCTVNSNPPARFIWKRGSDTLSHSQDNGVDIYEPLYTQGETKVLKLKNLRPQDYASYTCQVSVRNVCGIPDKAITFRLTNTT
binding result [4]: binds

The next lines start with the values.

Kd [1]: 37 to 96 nM
Molecule: rat NLGN2(+A) extracellular domain (Val43-His612, with splice insert SSA) (from UniProt Q62888-1 43-612) (domain or fragment)

binding result [4]: binds
B3: MDGA1_C8 Mut4 (MDGA1 Ig1-Ig2 R105A, Y107A, R123A, F154A, R156A, Y187A) (domain or fragment, human, UniProt Q8NFP4-1 22-237, looked up)
chain: B2 chain with R84A, Y86A, R102A, F133A, R135A, Y166A
